Assay results reported in patent US20240209100A1 (DIAGONAL THERAPEUTICS, published 2024).

Legend:
[1] = biological target: T1, IL-18 receptor (IL-18Rα/IL-18Rβ) on human PBMCs (human, UniProt Q13478 19-541; O95256 20-599); assay: cell-based or functional assay
T1 sequence 1: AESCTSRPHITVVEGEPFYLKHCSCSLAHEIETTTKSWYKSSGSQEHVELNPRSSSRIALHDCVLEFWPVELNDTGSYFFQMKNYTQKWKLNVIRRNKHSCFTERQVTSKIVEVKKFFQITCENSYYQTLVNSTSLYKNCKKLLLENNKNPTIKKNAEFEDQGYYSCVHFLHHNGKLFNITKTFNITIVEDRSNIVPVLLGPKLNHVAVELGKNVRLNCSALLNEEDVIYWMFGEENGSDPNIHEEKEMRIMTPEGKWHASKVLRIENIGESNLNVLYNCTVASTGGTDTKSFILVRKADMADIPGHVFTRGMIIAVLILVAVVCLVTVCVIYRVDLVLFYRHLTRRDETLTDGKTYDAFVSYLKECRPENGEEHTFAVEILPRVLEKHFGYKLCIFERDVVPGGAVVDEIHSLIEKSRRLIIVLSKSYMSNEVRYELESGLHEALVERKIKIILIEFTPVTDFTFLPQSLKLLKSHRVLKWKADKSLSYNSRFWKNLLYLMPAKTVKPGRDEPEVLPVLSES
T1 sequence 2: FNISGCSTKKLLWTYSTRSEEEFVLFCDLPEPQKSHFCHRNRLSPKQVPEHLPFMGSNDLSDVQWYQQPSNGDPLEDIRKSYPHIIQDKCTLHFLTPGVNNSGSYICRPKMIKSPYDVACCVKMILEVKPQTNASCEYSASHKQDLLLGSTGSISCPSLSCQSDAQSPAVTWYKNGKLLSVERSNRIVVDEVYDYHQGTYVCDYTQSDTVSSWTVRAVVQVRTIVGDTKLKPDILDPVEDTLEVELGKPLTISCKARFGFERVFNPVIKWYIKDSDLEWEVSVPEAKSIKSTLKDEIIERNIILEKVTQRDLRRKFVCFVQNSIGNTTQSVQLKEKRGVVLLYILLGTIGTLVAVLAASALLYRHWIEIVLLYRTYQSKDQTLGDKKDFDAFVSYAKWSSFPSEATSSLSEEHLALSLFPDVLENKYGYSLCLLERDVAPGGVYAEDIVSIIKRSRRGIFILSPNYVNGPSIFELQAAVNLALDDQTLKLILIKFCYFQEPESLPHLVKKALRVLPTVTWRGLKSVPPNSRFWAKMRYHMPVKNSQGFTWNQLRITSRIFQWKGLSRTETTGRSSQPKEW

human IL-18Rβ = biological target: T2, human IL-18Rβ (human, UniProt O95256 20-356, limits assumed); assay: SPR (Carterra LSA), antibody captured on anti-human IgG-Fc, monomeric antigen as analyte, 25 C
T2 construct: Monomeric antigen injected in SPR; also called IL-18R beta; IL-18Rb
T2 sequence: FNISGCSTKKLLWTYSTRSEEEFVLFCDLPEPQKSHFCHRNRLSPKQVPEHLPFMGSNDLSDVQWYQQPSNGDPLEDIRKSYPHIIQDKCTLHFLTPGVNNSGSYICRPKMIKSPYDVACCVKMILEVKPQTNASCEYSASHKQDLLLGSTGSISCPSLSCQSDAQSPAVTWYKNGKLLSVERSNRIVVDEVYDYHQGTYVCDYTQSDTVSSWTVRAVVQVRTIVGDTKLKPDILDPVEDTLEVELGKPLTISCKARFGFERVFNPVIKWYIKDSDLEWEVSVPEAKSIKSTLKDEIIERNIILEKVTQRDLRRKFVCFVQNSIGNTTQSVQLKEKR
Protocol: (§1) SPR experiments were performed using Carterra LSA equipped with an HC30M chip (Carterra-Bio). Binding assays were carried out at 25° C. with HBSTE (10 mM HEPES ph7.4, 150 mM NaCl, 3 mM EDTA, 0.05% Tween-20) with 0.5 g/L BSA. A density of anti-human IgG-Fc capture lawn was established on an HC30M chip using amine coupling. […] Coupling of goat anti-human IgG (H+L) multi-species SP ads-UNLB (Southern Biotech, 2087-01) with standard immobilization was done for 15 minutes in 10 mM sodium acetate pH 4.5 and quenched using 1M ethanolamine HCl PH8.5. The anti-human IgG-Fc capture surface was then used to capture a panel of antibodies at 20 μg/mL. Monomeric antigen for human IL-18Rα, human IL-18Rβ, cynomolgus IL-18Rα, or rhesus IL-18Rβ targeted by the antibodies was injected over the captured antibody array at 6 concentrations in 4-fold dilution series starting at 500 nM. Binding data was referenced and blanked from a buffer injected, then globally fit to a 1:1 Langmuir binding model for estimation of ka, kd, and KD using Carterra Kinetics Software.

cynomolgus IL-18Rα = biological target: T3, cynomolgus IL-18Rα (cynomolgus, UniProt A0A2K5V3J9 19-328); assay: as above
T3 construct: also called Cyno IL-18Rα; non-human primate IL-18Rα
T3 sequence: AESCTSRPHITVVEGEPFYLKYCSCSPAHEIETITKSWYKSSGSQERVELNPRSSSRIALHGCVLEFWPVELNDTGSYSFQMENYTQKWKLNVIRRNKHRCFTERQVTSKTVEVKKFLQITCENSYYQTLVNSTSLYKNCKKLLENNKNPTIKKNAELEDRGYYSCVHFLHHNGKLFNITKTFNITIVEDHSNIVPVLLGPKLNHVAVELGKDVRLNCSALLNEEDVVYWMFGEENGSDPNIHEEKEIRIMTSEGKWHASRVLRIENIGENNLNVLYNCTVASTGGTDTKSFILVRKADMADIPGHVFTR
Protocol: as §1

human IL-18Rα = biological target: T4, human IL-18Rα (human, UniProt Q13478 19-329, limits assumed); assay: as above
T4 construct: Monomeric antigen injected in SPR; also called huIL18Ra; IL-18R alpha
T4 sequence: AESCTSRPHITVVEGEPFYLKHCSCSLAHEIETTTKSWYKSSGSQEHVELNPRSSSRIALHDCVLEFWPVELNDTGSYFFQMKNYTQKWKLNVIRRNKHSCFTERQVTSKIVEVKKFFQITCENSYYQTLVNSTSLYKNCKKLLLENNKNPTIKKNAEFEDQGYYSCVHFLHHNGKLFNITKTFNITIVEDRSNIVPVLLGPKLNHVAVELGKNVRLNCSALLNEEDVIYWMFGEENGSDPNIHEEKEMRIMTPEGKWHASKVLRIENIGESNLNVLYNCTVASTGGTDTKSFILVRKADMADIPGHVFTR
Protocol: as §1

rhesus IL-18Rβ = biological target: T5, rhesus IL-18Rβ (rhesus, UniProt F7HHC1 20-356); assay: as above
T5 construct: also called non-human primate IL-18Rβ
T5 sequence: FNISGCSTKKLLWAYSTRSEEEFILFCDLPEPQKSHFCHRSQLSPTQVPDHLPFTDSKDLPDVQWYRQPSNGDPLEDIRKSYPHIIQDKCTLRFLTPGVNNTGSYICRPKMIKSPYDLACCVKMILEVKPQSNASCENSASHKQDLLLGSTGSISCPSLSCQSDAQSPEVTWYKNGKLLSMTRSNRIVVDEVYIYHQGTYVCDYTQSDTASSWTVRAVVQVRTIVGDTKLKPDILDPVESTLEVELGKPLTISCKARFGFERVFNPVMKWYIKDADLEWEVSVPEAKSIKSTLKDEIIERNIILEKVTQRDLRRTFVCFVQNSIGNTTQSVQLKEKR
Protocol: as §1

[2] = biological target: T6, IL-18 receptor (IL-18Rα/IL-18Rβ) overexpressed on HEK-Blue IL-18 cells (Homo sapiens (Human), UniProt Q13478 19-541; O95256 20-599); assay: cell-based or functional assay
T6 sequence 1: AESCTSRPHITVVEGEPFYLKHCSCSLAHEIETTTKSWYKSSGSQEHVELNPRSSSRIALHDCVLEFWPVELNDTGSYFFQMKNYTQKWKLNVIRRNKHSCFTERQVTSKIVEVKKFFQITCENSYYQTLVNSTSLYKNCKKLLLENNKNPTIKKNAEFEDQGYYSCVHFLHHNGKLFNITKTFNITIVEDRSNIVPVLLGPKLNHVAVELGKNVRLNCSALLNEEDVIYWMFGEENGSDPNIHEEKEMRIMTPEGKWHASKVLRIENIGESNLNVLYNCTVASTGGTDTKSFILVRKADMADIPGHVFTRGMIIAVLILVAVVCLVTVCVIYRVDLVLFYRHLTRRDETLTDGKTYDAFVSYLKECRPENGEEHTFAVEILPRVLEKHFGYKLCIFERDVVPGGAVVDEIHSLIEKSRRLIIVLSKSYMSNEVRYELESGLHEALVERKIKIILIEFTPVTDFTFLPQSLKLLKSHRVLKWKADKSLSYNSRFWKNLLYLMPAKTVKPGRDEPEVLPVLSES
T6 sequence 2: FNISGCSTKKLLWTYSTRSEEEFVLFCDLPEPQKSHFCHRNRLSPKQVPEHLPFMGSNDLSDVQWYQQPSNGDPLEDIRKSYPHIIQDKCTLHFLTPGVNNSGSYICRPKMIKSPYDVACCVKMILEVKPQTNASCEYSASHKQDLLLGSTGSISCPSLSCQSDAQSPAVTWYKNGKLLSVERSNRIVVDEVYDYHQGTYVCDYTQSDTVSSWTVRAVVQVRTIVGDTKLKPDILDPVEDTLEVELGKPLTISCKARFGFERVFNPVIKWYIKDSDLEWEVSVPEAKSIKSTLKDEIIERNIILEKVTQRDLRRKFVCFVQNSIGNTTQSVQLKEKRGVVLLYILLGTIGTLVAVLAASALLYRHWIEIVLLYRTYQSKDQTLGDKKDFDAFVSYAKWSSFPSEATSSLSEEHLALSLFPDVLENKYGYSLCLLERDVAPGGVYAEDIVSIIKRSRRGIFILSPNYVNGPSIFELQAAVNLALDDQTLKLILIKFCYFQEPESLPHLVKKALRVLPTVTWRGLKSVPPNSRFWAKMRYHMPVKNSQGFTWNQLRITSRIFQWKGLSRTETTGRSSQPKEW

B1: DGL336 (bispecific antibody, V domains shown)
V domain 1: EVQLLESGGGLVQPGGSLRLSCAASGRTFSKHAMGWFRQAPGKGLEFVSAIDWSGGSTYYADSVKGRFTISRDNSKNTVYLQMNSLRAEDTAVYYCAADSYTDYAQLWLPELESEYDYWGQGTLVTVSS
V domain 2: EVQLVESGGGLIQPGGSLRLSCAASGSISSRDTMGWYRQAPGKGREMVSVISSSGNTNYADSVLGRFTISRDNAKNTVYLQMNALRAEDTAVYKCYAHRTYGVDYWGQGTLVTVSS
notes: humanized VHH-Fc heterodimer
PBMC: calculated maximum induction of IFNγ after 24 hours, donor 1 [1]: 13000 | PBMC: calculated maximum induction of IFNγ after 24 hours, donor 2 [1]: 620 | PBMC: calculated maximum induction of IFNγ after 24 hours, donor 3 [1]: 17000 | PBMC: calculated maximum induction of IFNγ after 24 hours, donor 4 [1]: 9300 | PBMC: calculated maximum induction of IFNγ after 24 hours, donor 5 [1]: 1500 | PBMC: calculated maximum induction of IFNγ after 24 hours, donor 6 [1]: 1300 | Kd (human IL-18Rβ): 3.2 nM | Kd (cynomolgus IL-18Rα): 14 nM | Kd (human IL-18Rα): 11 nM | Kd (rhesus IL-18Rβ): 15 nM | HEK-Blue IL-18: Abs 405 at 100 nM [2]: 0.9 Abs | HEK-Blue IL-18: Fold over Background [2]: 4.9 fold

B2: DGL346 (bispecific antibody)
heavy 1: EVQLVESGGGLIQPGGSLRLSCAASGSISSRDTMGWYRQAPGKGREMVSVISSSGNTNYADSVLGRFTISRDNAKNTVYLQMNALRAEDTAVYKCYAHRTYGVDYWGQGTLVTVSSGGGSQVQLVESGGGLVQPGGSLRLSCAASGRTFSSYTMGWFRQAPGKGREFVSAISWSAGRTYYADSVKGRFTISRDNAKNTVYLQMNALRAEDTAVYYCAAEEAPDWAPIDCSGYGCLSLYDYWGQGTLVTVSDKTHTCPPCPAPEAAGAPSVFLFPPKPKDTLYITREPEVTCVVVDVSHEDPEVKFNWYVDGVEVHNAKTKPREEQYNSTYRVVSVLTVLHQDWLNGKEYKCKVSNKALPAPIEKTISKAKGQPREPQVCTLPPSRDELTKNQVSLSCAVKGFYPSDIAVEWESNGQPENNYKTTPPVLDSDGSFFLVSKLTVDKSRWQQGNVFSCSVMHEALHNHYTQKSLSLSPG
heavy 2: DKTHTCPPCPAPEAAGAPSVFLFPPKPKDTLYITREPEVTCVVVDVSHEDPEVKFNWYVDGVEVHNAKTKPREEQYNSTYRVVSVLTVLHQDWLNGKEYKCKVSNKALPAPIEKTISKAKGQPREPQVYTLPPCRDELTKNQVSLWCLVKGFYPSDIAVEWESNGQPENNYKTTPPVLDSDGSFFLYSKLTVDKSRWQQGNVFSCSVMHEALHNHYTQKSLSLSPG
notes: humanized
PBMC: calculated maximum induction of IFNγ after 24 hours, donor 1 [1]: 16000 | PBMC: calculated maximum induction of IFNγ after 24 hours, donor 2 [1]: 1700 | PBMC: calculated maximum induction of IFNγ after 24 hours, donor 3 [1]: 22000 | PBMC: calculated maximum induction of IFNγ after 24 hours, donor 4 [1]: 17000 | PBMC: calculated maximum induction of IFNγ after 24 hours, donor 5 [1]: 15000 | PBMC: calculated maximum induction of IFNγ after 24 hours, donor 6 [1]: 3000 | Kd (human IL-18Rβ): 2.2 nM | Kd (cynomolgus IL-18Rα): 900 nM | Kd (human IL-18Rα): 60 nM | Kd (rhesus IL-18Rβ): 10 nM | HEK-Blue IL-18: Abs 405 at 100 nM [2]: 1.34 Abs | HEK-Blue IL-18: Fold over Background [2]: 7.2 fold
